Positions count from the first letter of the chain named.
T1: full-length untagged human GPNMB expressed on cells (human, UniProt Q14956 23-572)
T1 sequence: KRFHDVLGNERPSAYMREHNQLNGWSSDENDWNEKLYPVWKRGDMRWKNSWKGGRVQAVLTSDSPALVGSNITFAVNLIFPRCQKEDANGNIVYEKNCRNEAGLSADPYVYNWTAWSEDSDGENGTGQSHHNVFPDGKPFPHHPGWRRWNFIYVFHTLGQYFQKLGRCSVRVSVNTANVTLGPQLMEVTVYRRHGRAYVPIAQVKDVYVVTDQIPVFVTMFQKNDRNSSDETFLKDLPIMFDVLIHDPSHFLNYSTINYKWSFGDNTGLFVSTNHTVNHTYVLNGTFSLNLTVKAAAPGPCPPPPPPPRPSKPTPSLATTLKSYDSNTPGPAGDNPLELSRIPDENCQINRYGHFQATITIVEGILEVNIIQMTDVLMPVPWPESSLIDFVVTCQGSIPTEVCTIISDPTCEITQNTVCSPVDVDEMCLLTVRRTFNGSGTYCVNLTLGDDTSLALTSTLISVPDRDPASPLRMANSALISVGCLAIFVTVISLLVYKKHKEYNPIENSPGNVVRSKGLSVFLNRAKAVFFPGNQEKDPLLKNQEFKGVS

T2: soluble mouse GPNMB-Fc polypeptide (mouse IgG2A Fc) (mouse, UniProt Q99P91 23-502)
T2 construct: extracellular domain; bought (R&D System); also called moGPNMB-Fc; mGPNMB-Fc; not shown: Fc region of mouse IgG2A
T2 sequence (looked up): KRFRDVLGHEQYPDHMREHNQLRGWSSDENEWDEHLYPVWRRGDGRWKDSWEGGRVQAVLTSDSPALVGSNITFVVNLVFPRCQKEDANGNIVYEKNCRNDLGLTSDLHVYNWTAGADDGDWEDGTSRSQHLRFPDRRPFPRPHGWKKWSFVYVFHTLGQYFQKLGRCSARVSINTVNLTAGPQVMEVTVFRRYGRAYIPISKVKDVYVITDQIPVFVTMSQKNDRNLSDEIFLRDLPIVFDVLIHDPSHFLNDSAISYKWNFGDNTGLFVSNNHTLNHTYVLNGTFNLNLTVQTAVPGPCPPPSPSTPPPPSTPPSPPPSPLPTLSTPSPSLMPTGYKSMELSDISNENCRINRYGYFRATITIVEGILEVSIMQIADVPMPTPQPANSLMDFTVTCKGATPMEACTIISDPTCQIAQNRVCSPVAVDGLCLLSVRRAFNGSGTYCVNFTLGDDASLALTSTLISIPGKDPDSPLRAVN

T3: mouse GPNMB endogenously expressed on B16F10 cells (mouse, UniProt Q99P91 23-574)
T3 construct: whole, on cells; also called moGPNMB
T3 sequence (looked up): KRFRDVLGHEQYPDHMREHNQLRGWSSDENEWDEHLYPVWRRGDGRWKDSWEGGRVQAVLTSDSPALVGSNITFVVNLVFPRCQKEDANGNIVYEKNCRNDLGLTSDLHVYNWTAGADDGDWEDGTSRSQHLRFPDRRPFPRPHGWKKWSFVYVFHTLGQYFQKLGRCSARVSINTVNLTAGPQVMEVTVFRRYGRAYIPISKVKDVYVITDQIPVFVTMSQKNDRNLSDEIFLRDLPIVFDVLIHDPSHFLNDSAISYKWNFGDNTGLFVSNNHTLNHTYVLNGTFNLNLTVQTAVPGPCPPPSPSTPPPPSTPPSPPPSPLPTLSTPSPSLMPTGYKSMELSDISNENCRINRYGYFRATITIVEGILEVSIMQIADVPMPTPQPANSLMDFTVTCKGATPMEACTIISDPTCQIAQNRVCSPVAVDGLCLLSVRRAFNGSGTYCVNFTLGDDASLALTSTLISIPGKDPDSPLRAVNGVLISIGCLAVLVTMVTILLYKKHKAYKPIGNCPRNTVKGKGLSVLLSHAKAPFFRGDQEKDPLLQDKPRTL

B1: anti-GPNMB antibody GPN-52 (antibody, human IgG1, V domains shown)
VH: DVQLQESGPGLVKPSQTVFLTCTVTGISITTGNYRWSWIRQFPGNKLEWIGYIYYSGTITYNPSLTSRITITRDTPKNEFFLEMNSLTAEDTATYYCARDLTHWYFDVWGTGTTVTVSS
VL: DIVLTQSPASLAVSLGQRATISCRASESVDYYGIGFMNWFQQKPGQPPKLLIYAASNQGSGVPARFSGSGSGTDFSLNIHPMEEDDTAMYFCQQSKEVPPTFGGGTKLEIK
notes: chimeric
B2: anti-GPNMB antibody GPN-61 (antibody, human IgG1, V domains shown)
VH: B1 VH with I69T, E79Q, N85S, Y96F, T102R
VL: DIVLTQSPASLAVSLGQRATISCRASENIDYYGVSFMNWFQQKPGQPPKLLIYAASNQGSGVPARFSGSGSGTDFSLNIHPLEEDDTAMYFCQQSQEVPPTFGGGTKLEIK
notes: chimeric
B3: anti-GPNMB antibody GPN-35 (antibody, human IgG1, V domains shown)
VH: EVQLVESGGGSVRPGRSLKLSCAAAGFTFSDYYMTWVRQAPTKGLEWVASINHDGGGTYYRDSVKGRFTISRDNARSSLYLQMDSLRSEDTGTYYCTTRAGWHWGQGVMVTVSS
VL: DIQMTQSPASLSASLGETVSIECLASEDIYNYLTWYQQKPGKSPQVLIYSASGLQDGVPSRFSGSGSGRQYSLKINGLESEDAATYFCLQDSEYPLTFGSGTKLEIK
notes: chimeric
B4: anti-GPNMB antibody GPN-48 (antibody, human IgG1, V domains shown)
VH: QVQLQQSGPELVKPGASVKLSCRASGYGFSSFWMNWVKQRPGKGLEWIGRIYPGKGDTLYNGKFKDKATLTADESSSTAYMQLSSLTSEDSAVYFCARSIYYYDYWYFDVWDTGTTVTVSS
VL: DIVMTQSHKFMSTSVGDRVNITCKASQDVNSAIAWYQQKPGQSPKLLIYSASYRFIGVPDRFTGSGSGTGFTFTISSVQAEDLAVYYCQQHYTTPLTFGAGTKLELK
notes: chimeric
B5: anti-GPNMB antibody GPN-42 (antibody, human IgG1, V domains shown)
VH: DVKLVESGEDLVKPGGSLKLSCAASGFTFSSYAMSWVRQTPEKRLEWVAYISSGGDYIYYADTVKGRFTISRDNARNTLYLQMSSLKSEDTAMYYCTRDRYYDYDVRDYYTMDYWGQGTSVTVSS
VL: DVMMTQTPLSLPVSLGDQASISCRSSQSLVHSNGNTYLHWFLQKPGQSPKLLIFRVSNRFSGVPDRFSGRGSGTDFTLKISRVEAEDLGVYFCSQTTHVPRTFGGGTTLEIK
notes: chimeric
B6: anti-GPNMB antibody GPN-37 (antibody, human IgG1, V domains shown)
VH: EVQLVESGGGLVQPGRSLKLSCAASGFTFSSKSGMAWVRQAPTKGLEWVASISNGGGDTYYRDSVKGRFTISRDNAKNTQYLQMDSLRPEDTATYYCARHRDYGYDAYFDYWGQGVMVTVSS
VL: DIQMTQSPASLSASLGETVTIECLASEDIYSSLAWYQQKPGKSPQLLIYDASSLQDGVPSRFSGSESGTQYSLEINSLQSEDAATYFCQQHHDYPYTFGAGTKLELK
notes: chimeric
B7: anti-GPNMB antibody GPN-43 (antibody, human IgG1, V domains shown)
VH: EVQLQQSGPELVKPGASVKISCKASGYTFTDYYMNWVRQSHGKSLEWIGDINPYHGGSTYNQKIKVKATLTVDKSSSTAYMELRSLTSEDSAVYYCARNWPYFDYWGQGTTLTVSS
VL: DIQMTQSPASLSASVGETVTITCRASENIYSFLVWYQQKQGKSPQLLVYNAKTLAEGVPSRFSGSGSGTQFSLKISSLQPEDFGSYYCQHHFGTPPYTFGGGTKLEIK
notes: chimeric
B8: anti-GPNMB antibody GPN-65 (antibody, human IgG1, V domains shown)
VH: QLQLQQSGTEVVKPGASVKIPCKASGYAFSSYWMNWVKQRPGKGLEWIGQIYPGDGDTNDNGKFEGKATLTVDKSSNTAYIQLSSLTSEDSAVYFCARSPLHLRGSMDYWGQGTSVTVSS
VL: SIVMTQTPKFLLVSAGDRVTITCKASQSVSNDVAWFQQKPGQSPELLIYSASNRYTGVPDRFTGSGYGTDFTFTISTVQAEDLAVYFCQQNYYSPFTFGGGTRLEIK
notes: chimeric

Assays:
[1] = target: T1, full-length untagged human GPNMB …; experiment: cell-based or functional assay
[2] = target: T2, soluble mouse GPNMB-Fc polypeptide …; experiment: FACS, blocking of moGPNMB-Fc binding to SVEC4-10 cells
Protocol: (§1) Purified full-length anti-GPNMB antibodies of the present disclosure were evaluated for their ability to block binding of moGPNMB-Fc to SVEC4-10 cells to determine the ligand blocking potency of each anti-GPNMB monoclonal antibody. Briefly, 2 μg/mL moGPNMB-Fc (mouse IgG2A Fc) diluted in binding buffer was pre-complexed with increasing concentrations of anti-GPNMB antibody of the present disclosure or human IgG1 isotype control antibody in 96-well plates. Subsequently, 100,000 SVEC4-10 cells were added per well and incubated on ice for 30 minutes. Soluble moGPNMB-Fc bound to cell surface was detected with fluorescent anti-mouse IgG2A secondary antibody and measured on FACSCanto. (FIG. 5A and FIG. 5B) IC50 values (for antibodies that block moGPNMB-Fc cell binding) and EC50 values (for antibodies that enhance moGPNMB-Fc cell binding) based on changes in MFI values were calculated (average+standard error) for each anti-GPNMB antibody and listed in Table 6. In Table 6, NA indicates no activity. […] In all cases, certain anti-GPNMB antibodies of the present disclosure blocked soluble GPNMB binding to cells, while other anti-GPNMB antibodies of the present disclosure enhanced soluble GPNMB binding to cells.

[3] = target: T3, mouse GPNMB endogenously expressed on …; experiment: FACS titration on B16F10 cells (endogenous mouse GPNMB) at 4 C; fluorescent secondary antibody; MFI-APC against soluble antibody (nM)
Protocol: Cell-based binding measurements were also performed to measure the apparent affinities of anti-GPNMB antibodies of the present disclosure to cell-surface expressed GPNMB. Serial dilutions of the monoclonal anti-GPNMB antibodies were added to 100,000 Freestyle293-huGPNMB+ or B16F10 cells and allowed to achieve binding equilibrium at 4° C. After addition of fluorescently labeled secondary antibody and brief washing steps, MFI values as a function of titrated antibody concentration was recorded via FACS analysis. Curves were fit using nonlinear regression analysis with Graphpad Prism 6 software.

[4] = target: T3, mouse GPNMB endogenously expressed on …; experiment: FACS, B16F10 cells; single-point FACS staining of B16F10 cells; weak signal, 1.7-fold over background
[5] = target: T2, soluble mouse GPNMB-Fc polypeptide …; experiment: FACS, enhancing of moGPNMB-Fc binding to SVEC4-10 cells
Protocol: as §1

[6] = target: T1, full-length untagged human GPNMB …; experiment: FACS, FS293-huGPNMB+ cells; single-point FACS staining of Freestyle293-huGPNMB+ cells; weak signal, 2.0-fold over background

Row | Binder | IC50 (read off the curve) of the loss of cell surface GPNMB (MFI), internalization assay on human macrophages [1] | IC50 [2] | further results
1 | B1 | ~2 nM | 1 nM | –
2 | B2 | ~2 nM | 0.77 nM | EC50 (read off the curve) [3]: ~0.1 nM; MFI fold over background [4]: 1.7 fold
3 | B3 | – | 1.17 nM | –
4 | B4 | – | 1.2 nM | EC50 (read off the curve) [3]: ~1 nM; MFI fold over background [4]: 1.7 fold
5 | B5 | – | – | EC50 [5]: 1.19 nM; MFI fold over background [6]: 2 fold
6 | B6 | ~2 nM | – | –
7 | B7 | – | 5.37 nM | –
8 | B8 | ~2 nM | – | EC50 [5]: 4.27 nM

Reference: patent US20250270343A1 (Alector, published 2025)
